Legend:
human C3 = human C3 (Homo sapiens, UniProt P01024); assay: SPR (Biacore T100) binding to human C3; details: for Binding affinity to C3 and C3b compared to parental molecule Clone IV: in words
Description: (§1) The kinetic parameters of the candidates are determined using a surface plasmon resonance (SPR) and Biacore T100 device. C3 and different variants thereof (Table 19) are immobilized as a ligand on a HC30M SPR sensor chip (XanTec bionanalytics, Germany) using EDC/[…] linking chemistry. Five increasing concentrations of each molecule (analyte) are consecutively injected using the single cycle kinetics (SCK) mode to determine the kinetic parameters. Regeneration between the candidates is done with 10 mM glycine*HCl, 2 M NaCl, pH 3.5. The data is fitted to a 1:1 Langmuir binding model and the kinetic parameters of on-rate (ka), off-rate (kd), and affinity […] were determined.

complement pathways = assay: Complement inhibition assays, comparison with parental Clone IV; format: biochemical, human; details: in words
From the text: To identify antibodies that block all 3 complement pathways, antibodies are screened using an enzyme immunoassay for the qualitative determination of functional classical, lectin and alternative complement pathways in human serum using the WEISLAB® Complement system Screen (Svar Life Science AB, Malmö, Sweden).

[1] = Concentration-dependent monomeric stability study at 37° C.; format: physicochemical; details: for Monomeric purity/content loss after two weeks incubation at 37° C.: >100 mg/mL protein concentration; for Monomeric content after 2 weeks at 37° C. / Monomeric content at start: Clone XI 152 mg/mL, Clone X 100 mg/mL
Description: The stability of Clone VI's heavy chain framework was explored by introducing framework substitutions, thereby creating inter alia Clone X (SEQ ID NO: 38). Clone X and its disulfide bond stabilized variant Clone XI (SEQ ID NO: 39) were compared in a stability study at 37° C. and >100 mg/mL protein concentration.

human C3b = biological target: T1, human C3b (Homo sapiens, UniProt P01024); assay: SPR (Biacore T100) binding to human C3b
T1 construct: C3b is derived from native C3 and is the larger of two elements formed by the cleavage of C3
Description: as §1

cyno C3 = assay: SPR (Biacore T100) binding to cyno C3; set-up: species or system cynomolgus (Macaca fascicularis)
Description: as §1

[2] = biological target: T2, recombinant C3 (wild-type human C3) (Homo sapiens, UniProt P01024); assay: SPR (Biacore T100) binding to recombinant C3
T2 construct: 6×His (N); made in house; host or cells: CHO (ExpiFectamine CHO Expression Kit)
Description: as §1
(§2) Proteins are expressed with N-terminal 6×His tag and purified using a HisTrap Excel HP column (GE Healthcare), followed by a size-exclusion chromatography step (SUPERDEX®20010/300GL; GE Healthcare).

human C3 P314L = biological target: T3, human C3 P314L (Homo sapiens, UniProt P01024, P314L); assay: SPR (Biacore T100) binding to C3 SNP1 P314L
T3 construct: 6×His (N); made in house; host or cells: CHO (ExpiFectamine CHO Expression Kit)
Description: as §1
Single nucleotide polymorphism (SNP) in C3 has been observed across the population and certain SNPs were identified in genome-wide association studies (GWAS) to correlate with an increased risk to develop AMD. […] Very rare variants, which occur in less that 2.5% of the population include K155Q, R735W, S1619W, K65Q and R161W.
as §2

human C3 R102G = biological target: T4, human C3 R102G (Homo sapiens, UniProt P01024, R102G); assay: SPR (Biacore T100) binding to C3 SNP2 R102G
T4 construct: 6×His (N); made in house; host or cells: CHO (ExpiFectamine CHO Expression Kit)
Description: as §1
Single nucleotide polymorphism (SNP) in C3 has been observed across the population and certain SNPs were identified in genome-wide association studies (GWAS) to correlate with an increased risk to develop AMD. Common SNP variants include P314L, which occurs in approximately 23.3% of population, and R102G, which has been reported to occur in approximately 26-29% of population. Very rare variants, which occur in less that 2.5% of the population include K155Q, R735W, S1619W, K65Q and R161W.
The inventors therefore measured the binding affinity of the scFv of the invention to the most commonly occurring C3 forms, i.e., R102G and P314L. Wild-type human C3, human C3 P314L and human C3 R102G are expressed in the CHO cell line using the ExpiFectamine CHO Expression Kit (Thermo Fisher Scientific). Proteins are expressed with N-terminal 6×His tag and purified using a HisTrap Excel HP column (GE Healthcare), followed by a size-exclusion chromatography step (SUPERDEX®20010/300GL; GE Healthcare).

[3] = Storage stability at 150 mg/ml, oligomerization by SE-HPLC; format: physicochemical; details: decrease in monomeric content versus start
Description: (§3) Clone I, clone II and clone III are tested for storage stability. Samples are concentrated to 150 mg/ml (Vivaspin20 centrifugal device, 5 kDa MWCO at 3800×g) and stored at 25° C. and 40° C. for up to 4 weeks. Samples are analyzed for oligomerization (SE-HPLC) and chemical degradation (IEX-HPLC). The starting monomeric purity as determined by SE-HPLC was 99.96% for each clone. The starting charge purity, as determined by IEX-HPLC was 98.07%, 97.16% and 96.76%, respectively for clone I, II and III.

[4] = Storage stability at 150 mg/ml, chemical degradation by IEX-HPLC; format: physicochemical
Description: as §3

[5] = Viscosity at high concentrations, cone-plate-rheometer; format: physicochemical; details: 20° C., shear-rate 1000 s^−1
Description: Viscosity measurements are performed with the samples prepared for the storage stability study. In addition to the fully formulated samples (10 mM His pH 5.5, 275 mM sucrose, 0.02% w/v Polysorbate20), viscosity of each candidate is also measured in a minimal formulation (10 mM histidine pH 5.5). This is performed to evaluate the drug substance processability (e.g., filtration, pumping, diafiltration, etc.) of the candidates up to 125% of the final drug product concentration of 150 mg/ml.
Viscosity is measured at 20° C. at a shear-rate of 1000 s^−1 using a cone-plate-rheometer. Briefly, a stepwise increase of the shear rate up to 1,000 s^−1 is done collecting 100 data points, followed by a further increase of the shear rate up to 2000 s^−1, collecting another 10 data points. Finally, a stepwise decrease of the shear rate down to starting rate is done. Good drug product handling properties for filling and syringeability have been observed for all candidates

Sequence of human C3 (P01024 23-1663): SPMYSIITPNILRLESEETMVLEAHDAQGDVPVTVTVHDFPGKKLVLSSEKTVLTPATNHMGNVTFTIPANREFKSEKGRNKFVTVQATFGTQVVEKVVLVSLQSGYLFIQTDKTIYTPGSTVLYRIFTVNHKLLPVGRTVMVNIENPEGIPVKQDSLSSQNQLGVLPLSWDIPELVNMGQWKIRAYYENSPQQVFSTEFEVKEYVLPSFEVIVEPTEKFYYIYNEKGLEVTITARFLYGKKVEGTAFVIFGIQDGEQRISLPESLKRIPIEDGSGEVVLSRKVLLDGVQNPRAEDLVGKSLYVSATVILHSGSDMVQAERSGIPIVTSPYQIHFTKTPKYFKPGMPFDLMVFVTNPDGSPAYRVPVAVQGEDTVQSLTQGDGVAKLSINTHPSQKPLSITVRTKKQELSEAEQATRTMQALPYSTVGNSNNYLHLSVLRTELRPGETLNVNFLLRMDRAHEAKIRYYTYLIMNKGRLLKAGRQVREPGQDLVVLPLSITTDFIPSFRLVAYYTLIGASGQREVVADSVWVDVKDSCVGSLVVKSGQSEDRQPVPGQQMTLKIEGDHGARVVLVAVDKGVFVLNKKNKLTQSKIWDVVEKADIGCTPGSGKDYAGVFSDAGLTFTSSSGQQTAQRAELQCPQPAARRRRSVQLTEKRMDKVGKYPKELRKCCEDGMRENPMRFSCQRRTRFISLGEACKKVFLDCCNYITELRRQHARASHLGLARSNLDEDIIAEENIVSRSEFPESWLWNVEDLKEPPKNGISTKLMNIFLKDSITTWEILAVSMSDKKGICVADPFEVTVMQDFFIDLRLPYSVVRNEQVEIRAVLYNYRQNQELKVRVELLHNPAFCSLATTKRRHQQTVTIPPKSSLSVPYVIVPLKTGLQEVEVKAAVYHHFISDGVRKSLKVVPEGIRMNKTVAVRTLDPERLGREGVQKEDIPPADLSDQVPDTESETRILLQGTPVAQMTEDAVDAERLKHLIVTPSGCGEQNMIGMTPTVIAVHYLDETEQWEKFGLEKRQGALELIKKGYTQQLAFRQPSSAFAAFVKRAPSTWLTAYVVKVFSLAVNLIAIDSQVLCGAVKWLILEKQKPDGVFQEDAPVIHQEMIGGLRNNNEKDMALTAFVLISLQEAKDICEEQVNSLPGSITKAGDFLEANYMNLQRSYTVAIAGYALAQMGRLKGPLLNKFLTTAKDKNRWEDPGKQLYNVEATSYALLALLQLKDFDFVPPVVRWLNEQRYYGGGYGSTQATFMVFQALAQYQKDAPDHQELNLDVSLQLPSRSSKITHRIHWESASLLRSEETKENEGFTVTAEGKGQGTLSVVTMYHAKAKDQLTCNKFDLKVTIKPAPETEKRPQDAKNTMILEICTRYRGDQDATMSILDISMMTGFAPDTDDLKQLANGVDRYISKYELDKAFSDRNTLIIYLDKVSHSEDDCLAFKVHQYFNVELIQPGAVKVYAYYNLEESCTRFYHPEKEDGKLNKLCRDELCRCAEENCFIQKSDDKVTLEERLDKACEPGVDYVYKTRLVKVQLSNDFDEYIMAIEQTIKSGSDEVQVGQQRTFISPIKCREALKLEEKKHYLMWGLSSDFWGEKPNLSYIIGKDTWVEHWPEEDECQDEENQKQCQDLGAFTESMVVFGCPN
T1 sequence (P01024 23-667 limits assumed): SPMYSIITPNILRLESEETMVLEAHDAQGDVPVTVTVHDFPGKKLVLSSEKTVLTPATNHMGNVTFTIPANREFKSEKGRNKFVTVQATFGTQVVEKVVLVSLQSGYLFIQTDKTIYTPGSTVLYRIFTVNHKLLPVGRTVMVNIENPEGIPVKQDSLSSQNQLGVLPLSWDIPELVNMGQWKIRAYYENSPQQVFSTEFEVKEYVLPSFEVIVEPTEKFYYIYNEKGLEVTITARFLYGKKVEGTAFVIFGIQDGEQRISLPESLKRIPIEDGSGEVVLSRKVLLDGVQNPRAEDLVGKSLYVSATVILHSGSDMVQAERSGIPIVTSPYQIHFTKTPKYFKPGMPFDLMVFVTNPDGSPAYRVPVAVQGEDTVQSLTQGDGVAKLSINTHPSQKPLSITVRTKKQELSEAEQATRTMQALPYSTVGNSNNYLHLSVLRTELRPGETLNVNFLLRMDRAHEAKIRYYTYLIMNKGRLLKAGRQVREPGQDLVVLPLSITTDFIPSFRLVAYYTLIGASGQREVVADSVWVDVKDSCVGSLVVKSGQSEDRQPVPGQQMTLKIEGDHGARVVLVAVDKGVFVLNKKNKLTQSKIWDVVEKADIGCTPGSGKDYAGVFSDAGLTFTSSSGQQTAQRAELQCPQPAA
T1 sequence (P01024 749-1663 limits assumed): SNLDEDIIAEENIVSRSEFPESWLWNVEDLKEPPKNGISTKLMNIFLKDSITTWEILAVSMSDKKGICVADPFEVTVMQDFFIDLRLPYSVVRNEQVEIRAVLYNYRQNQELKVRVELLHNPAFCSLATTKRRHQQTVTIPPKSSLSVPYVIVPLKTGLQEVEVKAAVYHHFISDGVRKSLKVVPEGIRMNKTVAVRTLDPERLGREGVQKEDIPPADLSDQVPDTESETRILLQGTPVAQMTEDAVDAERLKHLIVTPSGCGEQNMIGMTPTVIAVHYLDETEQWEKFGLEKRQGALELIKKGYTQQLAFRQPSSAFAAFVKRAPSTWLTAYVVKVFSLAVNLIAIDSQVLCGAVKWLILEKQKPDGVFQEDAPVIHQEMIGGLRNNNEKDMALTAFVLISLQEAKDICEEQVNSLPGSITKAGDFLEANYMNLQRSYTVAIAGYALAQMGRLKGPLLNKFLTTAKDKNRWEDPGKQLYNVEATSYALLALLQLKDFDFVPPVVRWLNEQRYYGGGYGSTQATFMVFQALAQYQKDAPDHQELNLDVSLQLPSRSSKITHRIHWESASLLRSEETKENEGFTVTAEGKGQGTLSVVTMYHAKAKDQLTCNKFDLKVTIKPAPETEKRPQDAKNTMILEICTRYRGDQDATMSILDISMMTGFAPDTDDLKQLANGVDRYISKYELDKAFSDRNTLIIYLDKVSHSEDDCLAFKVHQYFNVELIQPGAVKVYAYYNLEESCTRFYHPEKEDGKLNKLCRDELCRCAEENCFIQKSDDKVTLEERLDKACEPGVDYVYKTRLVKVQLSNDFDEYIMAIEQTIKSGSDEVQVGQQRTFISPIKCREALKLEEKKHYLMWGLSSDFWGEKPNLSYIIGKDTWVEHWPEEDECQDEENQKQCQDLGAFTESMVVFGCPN
T3 sequence (P01024 23-1663 P314L): as the sequence (P01024 23-1663) above, with P292L counted along it
T2 sequence (P01024 23-1663): as the sequence (P01024 23-1663) above
T4 sequence (P01024 23-1663 R102G): as the sequence (P01024 23-1663) above, with R80G counted along it

B1: Clone V: reformatted and humanized scFv variant of Clone IV, SEQ ID NO: 33 (protein)
scFv: MQLVLTQSPSASASLGASVKLTCTLSSAHKTYTIDWYQQQPEKGPRYLMQLKSDGSYTKGTGVPDRFSGSSSGAERYLTISSLQSEDEADYYCGTDYGGGYVFGGGTKLTVLGGGGGSGGGGSGGGGSGGGGSQVQVVESGGGSVQPGRSLRLSCAASGFSLYNYAMNWVRQAPGKGLEWIGIINTDGNTNYASWAKGRFTISTDNSKNTLYLQMNSLRAEDTASYYCPRAVGYHHHALDPWGQGTSVTVSS
modifications: ScFv
Binding affinity to C3 and C3b compared to parental molecule Clone IV (human C3): lower binding affinity
Complement inhibition activity compared to parental molecule Clone IV (complement pathways): retains its ability to inhibit the classical and alternative complement pathways

B2: Clone VII: affinity maturation hit scFv, SEQ ID NO: 35 (protein)
scFv: MQLVLTQSPSASASLGASVKLTCTLSSAHKTYTIDWYQQQPEKGPRYLMQLKSEGSYTKGTGVPDRFSGSSSGAERYLTISSLQSEDSAVYYCGTEGVGGYVFGCGTKLTVLGGGGGSGGGGSGGGGSGGGGSQVQVVESGGGSVQPGRSLRLSCAVSGFSLYNYAMNWVRQAPGKCLEWIGIINVGGGTNYASWAKGRFTISTDNSKNTVYLQMNSLRAEDTASYYCARAVGYHHHALDPWGQGTSVTVSS
modifications: ScFv
Binding affinity to C3 and C3b compared to parental molecule Clone IV (human C3): comparable binding affinity
Complement inhibition activity compared to parental molecule Clone IV (complement pathways): comparable

B3: Clone IX: affinity maturation hit scFv, SEQ ID NO: 37 (protein)
scFv: MQLVLTQSPSASASLGASVKLTCTLSSAHKTYTIDWYQQQPEKGPRYLMQLKSEGSYTKGTGVPDRFSGSSSGAERYLTISSLQSEDSAVYYCGTDGVGGYVFGCGTKLTVLGGGGGSGGGGSGGGGSGGGGSQVQVVESGGGSVQPGRSLRLSCAVSGFSLYNYAMNWVRQAPGKCLEWIGIINVGGGTNYASWAKGRFTISTDNSKNTVYLQMNSLRAEDTASYYCARAVGYHHHALDPWGQGTSVTVSS
modifications: ScFv
Binding affinity to C3 and C3b compared to parental molecule Clone IV (human C3): comparable binding affinity
Complement inhibition activity compared to parental molecule Clone IV (complement pathways): comparable

B4: Clone XI: disulfide bond stabilized variant of Clone X, SEQ ID NO: 39 (protein)
scFv: MQLVLTQSPSASASLGASVKLTCTLSSAHKTYTIDWYQQQPEKCPRYLMQLKSDGSYTKGTGVPDRFSGSSSGAERYLTISSLQSEDEADYYCGTDYGGGYVFGGGTKLTVLGGGGGSGGGGSGGGGSGGGGSQVQVVESGGGSVQPGRSLRLSCTVSGFSLYNYAMNWVRQAPGKGLEWIGIINTDGNTNYASWAKGRFTISTDNSKNTVYLQMNSLRAEDTASYYCARAVGYHHHALDPWGCGTSVTVSS
modifications: ScFv
Monomeric purity/content loss after two weeks incubation at 37° C. [1]: 3.3%
Monomeric content after 2 weeks at 37° C. [1]: 96.5%
Monomeric content at start [1]: 99.8%

B5: Clone X: Clone VI with heavy chain framework substitutions, SEQ ID NO: 38 (protein)
scFv: MQLVLTQSPSASASLGASVKLTCTLSSAHKTYTIDWYQQQPEKGPRYLMQLKSDGSYTKGTGVPDRFSGSSSGAERYLTISSLQSEDEADYYCGTDYGGGYVFGGGTKLTVLGGGGGSGGGGSGGGGSGGGGSQVQVVESGGGSVQPGRSLRLSCTVSGFSLYNYAMNWVRQAPGKGLEWIGIINTDGNTNYASWAKGRFTISTDNSKNTVYLQMNSLRAEDTASYYCARAVGYHHHALDPWGQGTSVTVSS
modifications: ScFv
Monomeric purity/content loss after two weeks incubation at 37° C. [1]: 60.4%
Monomeric content after 2 weeks at 37° C. [1]: 39.3%
Monomeric content at start [1]: 99.7%

B6: Clone III: humanized anti-C3 scFv, VH SEQ ID NO: 24, VL SEQ ID NO: 25; scFv SEQ ID NO: 30 or 31 (protein)
scFv: MQLVLTQSPSASASLGASVKLTCTLSSAHKTYTIDWYQQQPEKCPRYLMQLKSEGSYTKGSGIPDRFSGSSSGAERYLTISSLQSEDEADYYCGTEGVGGYVFGGGTKLTVLGGGGGSGGGGSGGGGSGGGGSQVQLVESGGGSVQPGRSLRLSCAASGFTFSNYAMNWVRQAPGKGLEWVAIINVGGGTNYADSVKGRFTISRDNSKNTLYLQMNSLRAEDTASYYCARAVGYHHARLDPWGCGTSVTVSS
kd C3 (human C3; off-rate): 3.6e-05 s⁻¹
ka C3 (human C3; on-rate): 240000 M⁻¹ s⁻¹
kd C3b (human C3b; off-rate): 3.1e-05 s⁻¹
ka C3b (human C3b; on-rate): 250000 M⁻¹ s⁻¹
kd cyno C3 (cyno C3; off-rate): 4.3e-05 s⁻¹
ka cyno C3 (cyno C3; on-rate): 200000 M⁻¹ s⁻¹
kd recombinant C3 ([2]; off-rate): 3.5e-05 s⁻¹
ka recombinant C3 ([2]; on-rate): 270000 M⁻¹ s⁻¹
kd C3 SNP1 P314L (human C3 P314L; off-rate): 3.2e-05 s⁻¹
ka C3 SNP1 P314L (human C3 P314L; on-rate): 250000 M⁻¹ s⁻¹
kd C3 SNP2 R102G (human C3 R102G; off-rate): 3.2e-05 s⁻¹
ka C3 SNP2 R102G (human C3 R102G; on-rate): 280000 M⁻¹ s⁻¹
Storage stability, SEC 4 weeks at 25° C. [D %] [3]: 0.10 D %
Storage stability, SEC 4 weeks at 40° C. [D %] [3]: 0.84 D %
Starting charge purity (IEX-HPLC) ([4]; before storage): 96.76%
Storage stability, IEX 4 weeks at 25° C. [D %] ([4]; decrease versus start): 0.3 D %
Storage stability, IEX 4 weeks at 40° C. [D %] ([4]; decrease versus start): 3.6 D %
Viscosity [mPa * s] Fully formulated at 150 g/L ([5]; 10 mM His pH 5.5, 275 mM sucrose, 0.02% w/v Polysorbate20): 3.3 mPa * s
Viscosity [mPa * s] Minimal buffer at 185 g/L ([5]; 10 mM His pH 5.5): 3.2 mPa * s

B7: Compound A3 Fab: NGM621 surrogate in a Fab format (antibody, V domains shown)
VH: QVQLVQSGAEVKKPGASVKVSCKASGYTFTDFYMDWVRQAPGQRLEWMGYIYPHNGGTTYNQQFTGRVTITVDKSASTAYMELSSLRSEDTAVYYCARRGGFDFDYWGQGTLVTVSS
VL: DIQMTQSPSSLSASVGDRVTITCKASENVDTYVSWYQQKPGKAPKLLIYGASNRYTGVPSRFSGSGSGTDFTFTISSLQPEDIATYHCGQSHSYPLTFGQGTKLEIKR
Kd (human C3b; Table 19, SPR, read-out: Affinity human C3b): > 34 nM

Source: patent publication US12344663B2, “Anti-C3 antibodies and antigen-binding fragments thereof and their uses for treating eye or ocular diseases” (CDR-Life AG, priority 2021, dated 2025)
